Test results: US20220098681A1 (INSERM INSTITUTE NATIONAL DE LA SANT ET DE LA RECHERCHE M …, published 2022)

T1: GST-nsP3 (chikungunya virus, UniProt Q8JUX6 1334-1856)
T1 chain: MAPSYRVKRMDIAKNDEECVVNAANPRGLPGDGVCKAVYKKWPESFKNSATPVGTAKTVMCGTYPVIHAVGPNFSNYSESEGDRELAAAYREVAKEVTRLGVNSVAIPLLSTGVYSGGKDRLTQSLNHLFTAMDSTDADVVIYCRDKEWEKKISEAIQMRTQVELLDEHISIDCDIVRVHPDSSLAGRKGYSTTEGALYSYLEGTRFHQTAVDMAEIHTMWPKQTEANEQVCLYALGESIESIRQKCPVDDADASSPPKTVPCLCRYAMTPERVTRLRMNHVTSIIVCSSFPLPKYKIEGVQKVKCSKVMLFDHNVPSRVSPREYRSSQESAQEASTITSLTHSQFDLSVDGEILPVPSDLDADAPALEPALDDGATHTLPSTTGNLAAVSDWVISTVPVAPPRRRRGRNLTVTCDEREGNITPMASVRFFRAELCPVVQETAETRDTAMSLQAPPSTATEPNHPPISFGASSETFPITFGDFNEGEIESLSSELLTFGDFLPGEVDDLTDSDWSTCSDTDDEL

T2: GST-nsP3ΔHVD (chikungunya virus, UniProt Q8JUX6 1334-1657)
T2 chain: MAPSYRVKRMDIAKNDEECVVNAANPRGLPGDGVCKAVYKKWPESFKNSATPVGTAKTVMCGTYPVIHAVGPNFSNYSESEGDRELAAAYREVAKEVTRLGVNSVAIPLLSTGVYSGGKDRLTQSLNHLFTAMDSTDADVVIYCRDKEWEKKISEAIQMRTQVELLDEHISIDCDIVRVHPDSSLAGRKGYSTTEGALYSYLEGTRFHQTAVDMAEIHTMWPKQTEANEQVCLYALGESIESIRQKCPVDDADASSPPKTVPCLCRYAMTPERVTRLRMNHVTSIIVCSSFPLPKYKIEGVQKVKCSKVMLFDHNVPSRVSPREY

T3: C-terminal HA-tagged FHL1A (human, UniProt Q13642-1 2-280)
T3 sequence: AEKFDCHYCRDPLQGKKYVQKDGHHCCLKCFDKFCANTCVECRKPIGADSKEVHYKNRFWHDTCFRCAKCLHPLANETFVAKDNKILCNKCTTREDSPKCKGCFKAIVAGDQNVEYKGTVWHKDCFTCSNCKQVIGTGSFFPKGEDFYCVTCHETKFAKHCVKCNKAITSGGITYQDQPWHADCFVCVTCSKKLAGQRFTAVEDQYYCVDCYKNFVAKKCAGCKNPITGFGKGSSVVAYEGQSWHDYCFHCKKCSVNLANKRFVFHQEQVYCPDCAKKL

T4: C-terminal HA-tagged FHL2 (UniProt Q14192 1-279)
T4 sequence: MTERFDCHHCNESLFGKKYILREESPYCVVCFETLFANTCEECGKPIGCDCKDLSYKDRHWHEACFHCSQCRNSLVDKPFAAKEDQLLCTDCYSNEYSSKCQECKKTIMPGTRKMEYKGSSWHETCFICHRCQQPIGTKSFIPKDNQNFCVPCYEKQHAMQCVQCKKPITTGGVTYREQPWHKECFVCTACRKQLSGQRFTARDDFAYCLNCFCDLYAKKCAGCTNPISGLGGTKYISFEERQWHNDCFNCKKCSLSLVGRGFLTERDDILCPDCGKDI

B1: 6×His-FHL1A (other)
chain: AEKFDCHYCRDPLQGKKYVQKDGHHCCLKCFDKFCANTCVECRKPIGADSKEVHYKNRFWHDTCFRCAKCLHPLANETFVAKDNKILCNKCTTREDSPKCKGCFKAIVAGDQNVEYKGTVWHKDCFTCSNCKQVIGTGSFFPKGEDFYCVTCHETKFAKHCVKCNKAITSGGITYQDQPWHADCFVCVTCSKKLAGQRFTAVEDQYYCVDCYKNFVAKKCAGCKNPITGFGKGSSVVAYEGQSWHDYCFHCKKCSVNLANKRFVFHQEQVYCPDCAKKL
B2: FLAG-tagged CHIKV nsP3 (pCI-neo-3×FLAG plasmid expressing the CHIKV nsP3) (other)
chain: MAPSYRVKRMDIAKNDEECVVNAANPRGLPGDGVCKAVYKKWPESFKNSATPVGTAKTVMCGTYPVIHAVGPNFSNYSESEGDRELAAAYREVAKEVTRLGVNSVAIPLLSTGVYSGGKDRLTQSLNHLFTAMDSTDADVVIYCRDKEWEKKISEAIQMRTQVELLDEHISIDCDIVRVHPDSSLAGRKGYSTTEGALYSYLEGTRFHQTAVDMAEIHTMWPKQTEANEQVCLYALGESIESIRQKCPVDDADASSPPKTVPCLCRYAMTPERVTRLRMNHVTSIIVCSSFPLPKYKIEGVQKVKCSKVMLFDHNVPSRVSPREYRSSQESAQEASTITSLTHSQFDLSVDGEILPVPSDLDADAPALEPALDDGATHTLPSTTGNLAAVSDWVISTVPVAPPRRRRGRNLTVTCDEREGNITPMASVRFFRAELCPVVQETAETRDTAMSLQAPPSTATEPNHPPISFGASSETFPITFGDFNEGEIESLSSELLTFGDFLPGEVDDLTDSDWSTCSDTDDEL

How the values were obtained:
[1] = molecular target: T1, GST-nsP3; test: GST pull-down with purified proteins, western blot with anti-FHL1
[2] = molecular target: T2, GST-nsP3ΔHVD; test: as above
[3] = molecular target: G3BP1 (UniProt Q13283 2-466); test: co-immunoprecipitation in ΔFHL1 cells
G3BP1, sequence (Q13283 2-466 limits assumed): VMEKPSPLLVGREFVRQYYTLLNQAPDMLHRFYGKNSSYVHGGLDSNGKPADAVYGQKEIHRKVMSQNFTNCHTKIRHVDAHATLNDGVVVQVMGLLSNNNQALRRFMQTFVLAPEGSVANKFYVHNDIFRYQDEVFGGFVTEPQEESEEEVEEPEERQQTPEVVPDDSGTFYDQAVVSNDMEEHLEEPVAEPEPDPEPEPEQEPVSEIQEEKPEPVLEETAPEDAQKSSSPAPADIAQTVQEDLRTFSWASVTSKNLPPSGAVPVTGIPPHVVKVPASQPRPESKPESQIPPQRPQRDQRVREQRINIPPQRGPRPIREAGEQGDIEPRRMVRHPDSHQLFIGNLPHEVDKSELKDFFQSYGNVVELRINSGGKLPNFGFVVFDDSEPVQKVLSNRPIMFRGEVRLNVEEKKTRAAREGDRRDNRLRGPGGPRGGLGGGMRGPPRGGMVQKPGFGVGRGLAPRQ

[4] = molecular target: T3, C-terminal HA-tagged FHL1A; test: co-immunoprecipitation, immunoblot (FIG. 4)
[5] = molecular target: T4, C-terminal HA-tagged FHL2; test: co-immunoprecipitation from co-transfected 293T cells

Binder	binding result [1]	binding result [2]	binding result [3]	binding result [4]	binding result [5]
B1	binds	no binding			
B2			binds	binds	binds
